Consider two molecules from article PMC8363725, “Mapping the biosynthetic pathway of a hybrid polyketide-nonribosomal peptide in a metazoan” (Nature Communications, 2021).

One series addresses T1, PKAL-1 (Caenorhabditis elegans, UniProt O02171).
T1 construct: PKAL-1 from C. elegans cDNA library in pET16b-KH01, C-terminal His tag, expressed in E. coli BL21(DE3), Ni resin and Superdex 200
T1 sequence (O02171 1-497): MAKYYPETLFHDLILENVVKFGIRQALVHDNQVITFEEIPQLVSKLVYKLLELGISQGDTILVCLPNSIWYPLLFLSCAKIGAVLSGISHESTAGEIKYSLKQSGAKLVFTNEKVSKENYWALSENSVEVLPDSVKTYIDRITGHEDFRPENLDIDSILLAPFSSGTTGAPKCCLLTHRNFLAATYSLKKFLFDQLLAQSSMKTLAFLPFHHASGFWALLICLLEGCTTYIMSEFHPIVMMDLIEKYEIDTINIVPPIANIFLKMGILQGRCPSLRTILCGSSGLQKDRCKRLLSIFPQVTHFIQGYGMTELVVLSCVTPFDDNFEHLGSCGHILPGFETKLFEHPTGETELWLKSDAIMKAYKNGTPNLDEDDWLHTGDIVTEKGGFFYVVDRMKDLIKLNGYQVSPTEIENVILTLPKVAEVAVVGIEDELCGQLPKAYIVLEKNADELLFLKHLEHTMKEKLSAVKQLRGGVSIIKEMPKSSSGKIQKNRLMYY
Description: enzyme-coupled continuous spectrophotometric assay (NADH). In kind it is biochemical. As to conditions: 4 mM ATP, 10 mM MgCl2, 100 mM hydroxylamine as acceptor, Tris pH 7.4, 22 °C; apparent.

Substrate in series [1]: CCCCCCCCCCCC(=O)O
The series is described as above. As to conditions: 4 mM ATP, 10 mM MgCl2, 100 mM hydroxylamine as acceptor, Tris pH 7.4, 22 °C, apparent. In kind it is biochemical, Caenorhabditis elegans.

Substrate in series [2]: CCCCCCCCCCCCCC(=O)O
Described as above. In kind it is biochemical, Caenorhabditis elegans. As to conditions: 4 mM ATP, 10 mM MgCl2, 100 mM hydroxylamine as acceptor, Tris pH 7.4, 22 °C, apparent.

Substrate in series [3]: CCCCCCCCCC(=O)O
The series is described as above. In kind it is biochemical, Caenorhabditis elegans. As to conditions: 4 mM ATP, 10 mM MgCl2, 100 mM hydroxylamine as acceptor, Tris pH 7.4, 22 °C, apparent.

Substrate in the series “purified protein”: CCCCCCCCCCCCCCCC(=O)O
Put plainly: purified protein. As to conditions: 4 mM ATP, 10 mM MgCl2, 100 mM hydroxylamine as acceptor, Tris pH 7.4, 22 °C, apparent.

Consider `CCCCCCCC(=O)O` [C8], for which, at PKAL-1, the Michaelis constant (Km) entry was “C12, which is in turn preferred over C10 and C8”.

B1: PKAL-1 (Caenorhabditis elegans) (protein)
chain: T1 sequence (O02171 1-497)
notes: PKAL-1 from C. elegans cDNA library in pET16b-KH01, C-terminal His tag, expressed in E. coli BL21(DE3), Ni resin and Superdex 200
Regarding B1, the Michaelis-Menten constant (Km) in series [1] is listed as 84.6 ± 17.5 µM; in series [2] it was 21.8 ± 2.6 µM; in series [3], 411.0 ± 20.2 µM; in the series “purified protein”, 8.7 ± 0.4 µM. The kcat in series [1] amounted to 0.00943 ± 0.00211 s⁻¹; in series [2] it was 0.03 ± 0.00223 s⁻¹; in series [3] it was 0.0437 ± 0.00284 s⁻¹; in the series “purified protein” it was 0.0127 ± 0.000484 s⁻¹.

The Km is the substrate concentration at which the rate is half of its maximum. A word on the kcat: it is the maximal rate divided by the concentration of active sites.
